Measurements as given in article PMC5116005 (Journal of molecular biology, 2016).
Ends that are not written are not given here.

Experiments:
NtrC1^C oligomer = experiment: Native PAGE gel binding assay, dye fluorescence visualized at 488 nm; design: species or system Aquifex aeolicus; conditions: 0.16 µM Alexa488-σ54(16-41), ADP-BeF3− at 500 µM, native PAGE 4–15%, Typhoon 488 nm
[1] = molecular target: T1, NtrC1^C(121–387), central AAA+ ATPase domain of A. aeolicus NtrC1 (A. aeolicus, UniProt O67198 121-387); experiment: fluorescence polarisation
T1 sequence (looked up): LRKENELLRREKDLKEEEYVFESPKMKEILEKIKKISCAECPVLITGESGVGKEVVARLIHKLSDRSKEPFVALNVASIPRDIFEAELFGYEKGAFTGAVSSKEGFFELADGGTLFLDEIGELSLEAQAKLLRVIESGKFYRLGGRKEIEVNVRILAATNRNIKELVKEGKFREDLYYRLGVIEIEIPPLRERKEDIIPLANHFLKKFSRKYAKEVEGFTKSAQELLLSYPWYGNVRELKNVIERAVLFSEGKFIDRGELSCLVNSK

[2] = molecular target: Alexa488-full length σ^54 (K2C) (UniProt P24255); experiment: fluorescence polarisation

In the case of “Alexa488-σ^54(16-41): σ54(16-41) with N-terminal Trp-Cys, cysteine derivatized with Alexa Fluor 488 maleimide (WC(Alexa Fluor 488 maleimide)LLLKQDLELLTYQTQELEKLIHEEVL)”, the “Binding to NtrC1^C oligomer on native gel with ADP-BeF3−” value (NtrC1^C oligomer) is reported as “bound to NtrC1^C”.

Work on WC(Alexa Fluor 488 maleimide)LLLKQDLELLTYQTQELEKLIHEEVL [Alexa488-σ^54(16-41) (A.a. σ^54(WC-16-41))] yielded a Kd [1] of 1000 nM.

B1: NtrC1^C(121–387), central AAA+ ATPase domain of A. aeolicus NtrC1 (domain or fragment)
chain: T1 sequence (looked up)
Molecule B1 has a Kd [2] of 2000 nM.
